B1: p85 R162stop: mutant form of p85α discovered pursuant to this study; truncated (protein)
chain: MSAEGYQYRALYDYKKEREEDIDLHLGDILTVNKGSLVALGFSDGQEARPEEIGWLNGYNETTGERGDFPGTYVEYIGRKKISPPTPKPRPPRPLPVAPGSSKTEADVEQQALTLPDLAEQFAPPDIAPPLLIKLVEAIEKKGLECSTLYRTQSSSNLAEL
modifications: left off: small tags and cut ends
notes: mutant form of p85α discovered pursuant to this study; truncated

Assays:
[1] = target: T1, p110alpha E545K (Homo sapiens, UniProt P42336, E545K); test: Co-immunoprecipitation of HA-tagged p85α with p110α in transfected Cos 7 cells; type: binding; set-up: key: “yes” (“Y”); “no” (“N”); details: HA bead immunoprecipitation, blot
T1 construct: expressed in transfected cells; host or cells: Cos 7
Procedure: (§1) The ability of p85α mutants to bind to p110α was assessed. Cos 7 cells were transiently transfected with nucleic acid encoding N-terminally HA-tagged p85α protein (either wild-type or mutant, as indicated in Table 2 below) and with nucleic acid encoding p110α (either wild-type or mutant, as indicated in Table 2 below). Proteins were immunoprecipitated using HA beads, separated by SDS-PAGE, transferred to nitrocellulose, and detected using anti-HA and anti-p110α antibodies. Binding of p85α to p110α is indicated as either “yes” (“Y”) or “no” (“N”) in Table 2. In the second row of Table 2, the term “p85 Dominant Negative” refers to a known dominant negative form of p85α in which the p110α binding domain from amino acids 479-513 is deleted. The remaining mutant forms of p85α listed in the first column of Table 2 were discovered pursuant to this study. In the header row of Table 2, the terms “p110alpha E545K” and “p110alpha H1047R” refer to two known mutational “hot spots” in p110α which result in constitutively active p110α.

[2] = target: T2, p110alpha WT (Homo sapiens, UniProt P42336); test: as above; type: binding; set-up: key: “yes” (“Y”); “no” (“N”); details: HA bead immunoprecipitation, blot
T2 construct: expressed in transfected cells; host or cells: Cos 7
Procedure: as §1

[3] = target: T3, p110alpha H1047R (Homo sapiens, UniProt P42336, H1047R); test: as above; type: binding; set-up: key: “yes” (“Y”); “no” (“N”); details: HA bead immunoprecipitation, blot
T3 construct: expressed in transfected cells; host or cells: Cos 7
Procedure: as §1

[4] = system: wild-type p110α; test: Fluorescence polarization assay of p110α activity in p85α/p110α complexes, phosphoinositide as substrate; type: biochemical; details: for p110α activity of the complex compared with the wild type complex (in words): absence of peptide; for Activity of p110α in the complex, No peptide: no phosphotyrosine peptide; for Activity of p110α in the complex, No peptide / Activity of p110α in the complex, Peptide (1 uM): normalized to wild-type complex in the absence of peptide; for Activity of p110α in the complex, Peptide (1 uM): phosphotyrosine (IRS-1) peptide 1 uM
Procedure: The ability of p85α mutant proteins to form active complexes with p110α was also assessed. Complexes consisting of p85α protein (either wild-type or mutant, as indicated in Table 3 below) and wild-type p110α were expressed in baculovirus. Activity of p110α in the complexes was assessed using a fluorescence polarization assay with phosphoinositide as the substrate. The assay was conducted in the absence or presence of a phosphotyrosine peptide (referred to as “peptide” in Table 3 below). That peptide corresponds to a phosphotyrosine-containing region of Insulin Receptor Substrate-1 that binds to the SH2 region of p85α and enhances the activity of the wild-type p85α/p110α complex. See Miled et al., Science, 317:239-242 (2007). The p85α mutants tested in Table 3 have mutations in their C-terminal SH2 domains. The activities were normalized to the value obtained for p110α in the wild-type complex in the absence of peptide.

T1 sequence (P42336 whole entry E545K): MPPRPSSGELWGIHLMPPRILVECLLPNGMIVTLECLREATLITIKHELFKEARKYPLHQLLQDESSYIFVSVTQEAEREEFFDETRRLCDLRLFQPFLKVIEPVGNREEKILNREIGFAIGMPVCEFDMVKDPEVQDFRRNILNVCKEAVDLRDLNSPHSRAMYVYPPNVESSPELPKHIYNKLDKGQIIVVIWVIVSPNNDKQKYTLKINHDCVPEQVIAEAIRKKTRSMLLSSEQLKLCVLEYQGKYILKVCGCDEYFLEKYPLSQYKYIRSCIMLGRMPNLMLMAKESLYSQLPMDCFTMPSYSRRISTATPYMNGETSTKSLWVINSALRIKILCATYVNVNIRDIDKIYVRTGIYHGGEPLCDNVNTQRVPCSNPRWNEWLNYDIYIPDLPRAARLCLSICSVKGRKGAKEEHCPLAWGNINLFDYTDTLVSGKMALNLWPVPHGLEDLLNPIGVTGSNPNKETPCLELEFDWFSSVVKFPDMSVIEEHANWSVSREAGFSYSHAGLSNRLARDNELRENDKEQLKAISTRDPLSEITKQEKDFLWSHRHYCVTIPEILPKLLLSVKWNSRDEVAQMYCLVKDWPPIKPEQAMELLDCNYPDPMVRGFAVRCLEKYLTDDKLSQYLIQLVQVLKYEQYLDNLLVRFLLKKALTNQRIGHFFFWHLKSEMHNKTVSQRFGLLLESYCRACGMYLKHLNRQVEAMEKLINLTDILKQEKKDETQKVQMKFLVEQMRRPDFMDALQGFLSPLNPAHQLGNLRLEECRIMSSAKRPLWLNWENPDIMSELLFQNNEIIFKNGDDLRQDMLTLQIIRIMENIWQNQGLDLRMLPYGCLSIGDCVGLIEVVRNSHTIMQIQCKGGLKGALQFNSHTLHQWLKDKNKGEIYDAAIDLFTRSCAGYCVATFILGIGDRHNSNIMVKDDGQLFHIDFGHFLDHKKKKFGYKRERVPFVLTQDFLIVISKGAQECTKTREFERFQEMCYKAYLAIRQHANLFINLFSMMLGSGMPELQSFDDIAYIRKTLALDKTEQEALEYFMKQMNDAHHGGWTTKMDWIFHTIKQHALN
T3 sequence (P42336 whole entry H1047R): as the sequence (P42336 whole entry E545K) above, with K545E, H1047R counted along it
T2 sequence (P42336 whole entry): as the sequence (P42336 whole entry E545K) above, with K545E counted along it

Row | Molecule | Binding of p85α to p110α [1] | Binding of p85α to p110α [2] | Binding of p85α to p110α [3] | p110α activity of the complex compared with the wild type complex (in words) [4] | Activity of p110α in the complex, No peptide [4] | Activity of p110α in the complex, Peptide (1 uM) [4]
1 | p85 A682V: mutant form of p85α discovered pursuant to this study | Y | Y | Y | – | – | –
2 | p85 Dominant Negative: known dominant negative form of p85α in which the p110α binding domain from amino acids 479-513 is deleted [reference compound] | N | N | N | – | – | –
3 | p85 E666K: mutant form of p85α discovered pursuant to this study | Y | Y | Y | comparable to that seen in the wild type complex | 0.92 | 2.54
4 | p85 L449S: mutant form of p85α discovered pursuant to this study | Y | Y | Y | – | – | –
5 | p85 N285H: mutant form of p85α discovered pursuant to this study | Y | Y | Y | – | – | –
6 | p85 N527K: mutant form of p85α discovered pursuant to this study | Y | Y | Y | decreased p110α activity | 0.75 | 1.92
7 | p85 N564D: mutant form of p85α discovered pursuant to this study | Y | Y | Y | increased p110α activity | 1.71 | 2.47
8 | p85 R348stop: mutant form of p85α discovered pursuant to this study; truncated | N | N | N | – | – | –
9 | p85 R543I: mutant form of p85α discovered pursuant to this study | Y | Y | Y | – | – | –
10 | p85 R574I: mutant form of p85α discovered pursuant to this study | Y | Y | Y | – | – | –
11 | p85 R642stop: mutant form of p85α discovered pursuant to this study | Y | Y | Y | – | – | –
12 | p85 R649Q: mutant form of p85α discovered pursuant to this study | Y | Y | Y | decreased p110α activity | 0.45 | 1.7
13 | p85 WT: wild-type p85α, regulatory subunit of PI3K encoded by PIK3R1 [reference compound] | – | – | – | – | 1 | 2.77
14 | B1 | N | N | N | – | – | –

From patent publication US8680041B2, “Genetic variations associated with tumors” (Genentech, Inc., priority 2006, dated 2014)
